Measured values taken from patent publication US20240390512A1, “METHODS OF TREATING CHEMOTHERAPY-RESISTANT CANCER WITH AN ANTIBODY-DRUG CONJUGATE” (DAIICHI SANKYO COMPANY, LIMITED, priority 2021, published 2024).

T1: human CDH6 (full-length and EC domain deletion mutants) (Homo sapiens, UniProt P55285, DEL487-608)
T1 construct: each one of the five EC domains could be deleted from full-length human CDH6; 3xFLAG (deletion mutants only, from the vector p3×FLAG-CMV-9); expressed in transfected cells; host or cells: 293α cells
T1 sequence (P55285 with tags, fused parts or gaps DEL487-608): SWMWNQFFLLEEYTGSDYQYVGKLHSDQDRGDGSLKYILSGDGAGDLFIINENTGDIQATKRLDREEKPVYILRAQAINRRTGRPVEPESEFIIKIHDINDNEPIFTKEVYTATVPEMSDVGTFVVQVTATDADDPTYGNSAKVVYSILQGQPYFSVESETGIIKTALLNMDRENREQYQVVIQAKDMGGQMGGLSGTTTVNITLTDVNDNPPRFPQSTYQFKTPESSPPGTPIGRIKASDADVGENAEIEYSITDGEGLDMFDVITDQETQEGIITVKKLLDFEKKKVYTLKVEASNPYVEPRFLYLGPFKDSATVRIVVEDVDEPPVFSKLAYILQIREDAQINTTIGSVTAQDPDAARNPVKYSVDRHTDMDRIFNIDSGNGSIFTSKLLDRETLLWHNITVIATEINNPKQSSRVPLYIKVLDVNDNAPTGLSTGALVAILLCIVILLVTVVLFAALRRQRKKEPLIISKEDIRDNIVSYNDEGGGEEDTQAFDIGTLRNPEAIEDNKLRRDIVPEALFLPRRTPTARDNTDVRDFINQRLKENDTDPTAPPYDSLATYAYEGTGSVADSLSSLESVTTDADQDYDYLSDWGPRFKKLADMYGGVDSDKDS

T2: human CDH6 (full-length and EC domain deletion mutants) (Homo sapiens, UniProt P55285, DEL269-383)
T2 construct: each one of the five EC domains could be deleted from full-length human CDH6; 3xFLAG (deletion mutants only, from the vector p3×FLAG-CMV-9); expressed in transfected cells; host or cells: 293α cells
T2 sequence (P55285 with tags, fused parts or gaps DEL269-383): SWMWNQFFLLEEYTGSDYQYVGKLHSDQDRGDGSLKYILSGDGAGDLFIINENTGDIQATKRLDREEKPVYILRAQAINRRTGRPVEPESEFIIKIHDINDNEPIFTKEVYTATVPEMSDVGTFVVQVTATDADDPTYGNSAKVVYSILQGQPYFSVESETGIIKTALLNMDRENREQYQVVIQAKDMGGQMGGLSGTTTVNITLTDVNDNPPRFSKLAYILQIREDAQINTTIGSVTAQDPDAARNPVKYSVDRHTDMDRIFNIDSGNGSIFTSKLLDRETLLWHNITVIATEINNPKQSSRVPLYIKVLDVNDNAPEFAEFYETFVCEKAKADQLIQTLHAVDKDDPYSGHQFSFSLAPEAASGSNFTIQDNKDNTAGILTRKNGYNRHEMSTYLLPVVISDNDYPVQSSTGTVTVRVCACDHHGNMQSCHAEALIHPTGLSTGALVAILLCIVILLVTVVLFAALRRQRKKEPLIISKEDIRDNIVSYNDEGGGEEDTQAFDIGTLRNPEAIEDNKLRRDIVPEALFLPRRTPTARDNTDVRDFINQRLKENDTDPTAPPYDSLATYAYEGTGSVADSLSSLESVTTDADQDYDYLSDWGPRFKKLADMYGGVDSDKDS


Experiments:
[1] = molecular target: T1, human CDH6 (full-length and EC domain deletion mutants); test: Epitope analysis of rat anti-CDH6 antibody by flow cytometry using domain deletion mutants; assay type: binding; settings: flow cytometry; transfected 293α cells; antibody 20 nM
Text: (§1) The full-length extracellular region of human CDH6 has five extracellular domains, EC1 (SEQ ID NO: 2), EC2 (SEQ ID NO: 3), EC3 (SEQ ID NO: 4), EC4 (SEQ ID NO: 5), and EC5 (SEQ ID NO: 6). A gene to be expressed such that each one of the five EC domains could be deleted from full-length human CDH6 was synthesized by GeneArt, and incorporated into p3×FLAG-CMV-9 vectors for mammalian expression (Sigma-Aldrich Co. LLC) according to a method known to a person skilled in the art in order to produce an expression vector for each domain deletion mutant lacking any one of EC1 to EC5.
(§2) The epitopes to which the rat anti-human CDH6 antibodies bound were identified by flow cytometry analysis using a 293α cell line transfected with each EC domain deletion vector. Using Lipofectamine 2000 (Thermo Fisher Scientific Inc.), each domain deletion mutant expression vector produced in Reference Example 2)-2-1, or pcDNA3.1-hCDH6 for the expression of full-length human CDH6 was transiently introduced into a 293α cell line, which was a cell line derived from HEK293 cells by stable transfection with integrin αv and integrin […] expression vectors. The cells were cultured overnight under conditions of 37° C. and 5% CO2, and thereafter, a cell suspension was prepared. The suspension of the transfected 293α cells was centrifuged, and a supernatant was then removed. Thereafter, the cells were suspended by the addition of each of the 4 rat anti-CDH6 monoclonal antibodies (clone Nos: rG019, rG055, rG056 and rG061), which had been prepared in Reference Example 1)-7, or rat IgG control (R&D Systems, Inc.) (final concentration: 20 nM). The cells were left standing at 4° C. for 1 hour. The cells were washed twice with PBS supplemented with 5% FBS, and then suspended by the addition of Anti-Rat IgG (whole molecule)-FITC antibody produced in rabbit (Sigma-Aldrich Co. LLC) that had been 50-fold diluted with PBS supplemented with 5% FBS. The cells were left standing at 4° C. for 1 hour. The cells were washed twice with PBS supplemented with 5% FBS, followed by detection using a flow cytometer (Canto II; BD Biosciences). The data was analyzed using FlowJo (Tree Star, Inc.). In the histograms of FIGS. 2-1 to 2-6, the abscissa depicts FITC fluorescence intensity indicating the amount of the antibody bound, and the ordinate depicts cell count. […] Fluorescence intensity is enhanced when the antibody binds to full-length hCDH6 or each EC domain deletion mutant on the surface of cells. The rat IgG control binds to none of the transfected cells.

[2] = molecular target: T2, human CDH6 (full-length and EC domain deletion mutants); test: as above; assay type: binding; settings: flow cytometry; transfected 293α cells; antibody 20 nM
Text: as §1, §2

Row | Molecule | binding to EC5 deletion mutant [1] | binding to EC3 deletion mutant [2]
1 | rG019: rat anti-human CDH6 monoclonal antibody produced by hybridoma rG019; variable regions SEQ ID NO: 10 and 15 (antibody, listed as Rattus norvegicus, V domains shown) VL: DIQMTQSPSLLSASVGDRVTLNCKASQNIYKNLAWYQQKLGEGPKLLIYDANTLQTGIPSRFSGSGSGSDFTLTISSLQPEDVATYFCQQYYSGWAFGGVTNLELKRA VH: QVQLQQSGAELVKPGSSVKISCKASGYTFTRNFMHWIKQQPGNGLEWIGWIYCGDGETEYNQKFNGKATLTADRSSSTAYMELSRLTSEDSAVYFCARGVYGGFAGGYFDFWGQGVMVTVSS | bind | do not bind
2 | rG055: rat anti-human CDH6 monoclonal antibody produced by hybridoma rG055; variable regions SEQ ID NO: 20 and 25 (antibody, listed as Rattus norvegicus, V domains shown) VL: DVQMTHSPSYLAASPGESVSISCKTSKNISNYLVWYQQKPGEAYKLLIYSGSTLQSGTPSRFSGSGSGTDFTLTIRSLEPEDFGLYFCQQYYEKPFTFGSGTKLEIKRA VH: EVQLQESGPGLVRPSQSLSLSCSVTDYSITSNYWGWIRRFPGNKMEWMGYITYSGYTSYNPSLQSRISITRDTSKNQFFLQLNSVTAEDTATYYCARSINHGGYSYVVDAWGPGASVTVSS | bind | do not bind
3 | rG056: rat anti-human CDH6 monoclonal antibody produced by hybridoma rG056; variable regions SEQ ID NO: 30 and 35 (antibody, listed as Rattus norvegicus, V domains shown) VL: DVQMTQSPSSLAASPGESVSISCRATKSIGIYLAWYQQKPGKTFKLLIYSGSTLQSGTPSRFSGSGSGTDFTLTIRSLEPEDFGLYFCQQFYENPFTFGSGTKLEIRRA VH: EVQLQESGPGLVKPSQSLSLTCSVTDYSITTYFWGWIRKFPGNKMEWMGYMSYRGGTSYNPSLKSRISITRDTSKNQFFLQLNSVTTEDTATYYCARCPNYGGHSLVFDYWGQGVMVTVSS | bind | do not bind
4 | rG061: rat anti-human CDH6 monoclonal antibody produced by hybridoma rG061; variable regions SEQ ID NO: 40 and 45 (antibody, listed as Rattus norvegicus, V domains shown) VL: DVQMTQSPSYLAASPGESVSISCKATKSISNYLAWYQQKPGEAYKVLIYSGSTLQSGTPSRFSGSGSGTDFTLTIRSLEPEDFGLYSCQQYYEKPLTFGSGTKLEIKRA VH: EVQLQESGPGLVKPSQSLSLTCSVTGYSITTYYWGWIRKFPGNKMEWMGYISYSGRTSYNPSLKSRMSITRDASKNQFFLQLNSVTTDDTATYYCARSPINHGGYWYFDFWGPGTMVTVSS | bind | do not bind
